Experimental data as given in US20200115416A1 (REGENTS OF THE UNIVERSITY OF MINNESOTA, published 2020).
Where two headings read alike, the source gives them in different places. Square brackets hold non-standard residues; d marks the D form. hPhe = N[C@@H](CCc1ccccc1)C(=O)O; Nle = CCCC[C@H](N)C(=O)O; Dap = NC[C@H](N)C(=O)O

B1: c[Pro-Arg-Phe-Phe-Arg-Ala-Nle-DPro] (peptide)
peptide: cyclo(PRFFRA[Nle][dP])
SMILES: CCCC[C@@H]1NC(=O)[C@H](C)NC(=O)[C@H](CCCNC(=N)N)NC(=O)[C@H](Cc2ccccc2)NC(=O)[C@H](Cc2ccccc2)NC(=O)[C@H](CCCNC(=N)N)NC(=O)[C@@H]2CCCN2C(=O)[C@H]2CCCN2C1=O
B2: c[Pro-Arg-Phe-Phe-Leu-Ala-Phe-DPro] (peptide)
peptide: cyclo(PRFFLAF[dP])
SMILES: CC(C)C[C@@H]1NC(=O)[C@H](Cc2ccccc2)NC(=O)[C@H](Cc2ccccc2)NC(=O)[C@H](CCCNC(=N)N)NC(=O)[C@@H]2CCCN2C(=O)[C@H]2CCCN2C(=O)[C@H](Cc2ccccc2)NC(=O)[C@H](C)NC1=O
B3: c[Pro-Arg-Phe-hPhe-Dap-Ala-Nle-DPro] (peptide)
peptide: cyclo(PRF[hPhe][Dap]A[Nle][dP])
SMILES: CCCC[C@@H]1NC(=O)[C@H](C)NC(=O)[C@H](CN)NC(=O)[C@H](CCc2ccccc2)NC(=O)[C@H](Cc2ccccc2)NC(=O)[C@H](CCCNC(=N)N)NC(=O)[C@@H]2CCCN2C(=O)[C@H]2CCCN2C1=O
B4: c[Pro-Arg-Phe-Phe-Thr-Ala-Phe-DPro] (peptide)
peptide: cyclo(PRFFTAF[dP])
SMILES: C[C@@H]1NC(=O)[C@H]([C@@H](C)O)NC(=O)[C@H](Cc2ccccc2)NC(=O)[C@H](Cc2ccccc2)NC(=O)[C@H](CCCNC(=N)N)NC(=O)[C@@H]2CCCN2C(=O)[C@H]2CCCN2C(=O)[C@H](Cc2ccccc2)NC1=O
B5: c[Pro-Arg-Phe-hPhe-Asn-Ala-Nle-DPro] (peptide)
peptide: cyclo(PRF[hPhe]NA[Nle][dP])
SMILES: CCCC[C@@H]1NC(=O)[C@H](C)NC(=O)[C@H](CC(N)=O)NC(=O)[C@H](CCc2ccccc2)NC(=O)[C@H](Cc2ccccc2)NC(=O)[C@H](CCCNC(=N)N)NC(=O)[C@@H]2CCCN2C(=O)[C@H]2CCCN2C1=O
B6: c[Pro-Arg-Phe-Phe-Dap-Ser-Nle-DPro] (peptide)
peptide: cyclo(PRFF[Dap]S[Nle][dP])
SMILES: CCCC[C@@H]1NC(=O)[C@H](CO)NC(=O)[C@H](CN)NC(=O)[C@H](Cc2ccccc2)NC(=O)[C@H](Cc2ccccc2)NC(=O)[C@H](CCCNC(=N)N)NC(=O)[C@@H]2CCCN2C(=O)[C@H]2CCCN2C1=O
B7: c[Pro-Arg-Phe-Phe-Asn-Ser-Nle-DPro] (peptide)
peptide: cyclo(PRFFNS[Nle][dP])
SMILES: CCCC[C@@H]1NC(=O)[C@H](CO)NC(=O)[C@H](CC(N)=O)NC(=O)[C@H](Cc2ccccc2)NC(=O)[C@H](Cc2ccccc2)NC(=O)[C@H](CCCNC(=N)N)NC(=O)[C@@H]2CCCN2C(=O)[C@H]2CCCN2C1=O
B8: c[Pro-Arg-Phe-Phe-Arg-Ser-Nle-DPro] (peptide)
peptide: cyclo(PRFFRS[Nle][dP])
SMILES: CCCC[C@@H]1NC(=O)[C@H](CO)NC(=O)[C@H](CCCNC(=N)N)NC(=O)[C@H](Cc2ccccc2)NC(=O)[C@H](Cc2ccccc2)NC(=O)[C@H](CCCNC(=N)N)NC(=O)[C@@H]2CCCN2C(=O)[C@H]2CCCN2C1=O
B9: c[Pro-Arg-Phe-Phe-Arg-Ser-Phe-DPro] (peptide)
peptide: cyclo(PRFFRSF[dP])
SMILES: N=C(N)NCCC[C@@H]1NC(=O)[C@H](Cc2ccccc2)NC(=O)[C@H](Cc2ccccc2)NC(=O)[C@H](CCCNC(=N)N)NC(=O)[C@@H]2CCCN2C(=O)[C@H]2CCCN2C(=O)[C@H](Cc2ccccc2)NC(=O)[C@H](CO)NC1=O
B10: c[Pro-Arg-Phe-hPhe-Dap-Ser-Phe-DPro] (peptide)
peptide: cyclo(PRF[hPhe][Dap]SF[dP])
SMILES: N=C(N)NCCC[C@@H]1NC(=O)[C@@H]2CCCN2C(=O)[C@H]2CCCN2C(=O)[C@H](Cc2ccccc2)NC(=O)[C@H](CO)NC(=O)[C@H](CN)NC(=O)[C@H](CCc2ccccc2)NC(=O)[C@H](Cc2ccccc2)NC1=O
B11: c[Pro-Arg-Phe-hPhe-Asn-Ser-Nle-DPro] (peptide)
peptide: cyclo(PRF[hPhe]NS[Nle][dP])
SMILES: CCCC[C@@H]1NC(=O)[C@H](CO)NC(=O)[C@H](CC(N)=O)NC(=O)[C@H](CCc2ccccc2)NC(=O)[C@H](Cc2ccccc2)NC(=O)[C@H](CCCNC(=N)N)NC(=O)[C@@H]2CCCN2C(=O)[C@H]2CCCN2C1=O
B12: c[Pro-Arg-Phe-Phe-Dap-Ala-Nle-DPro] (peptide)
peptide: cyclo(PRFF[Dap]A[Nle][dP])
SMILES: CCCC[C@@H]1NC(=O)[C@H](C)NC(=O)[C@H](CN)NC(=O)[C@H](Cc2ccccc2)NC(=O)[C@H](Cc2ccccc2)NC(=O)[C@H](CCCNC(=N)N)NC(=O)[C@@H]2CCCN2C(=O)[C@H]2CCCN2C1=O
B13: c[Pro-Arg-Phe-hPhe-Asn-Ser-Phe-DPro] (peptide)
peptide: cyclo(PRF[hPhe]NSF[dP])
SMILES: N=C(N)NCCC[C@@H]1NC(=O)[C@@H]2CCCN2C(=O)[C@H]2CCCN2C(=O)[C@H](Cc2ccccc2)NC(=O)[C@H](CO)NC(=O)[C@H](CC(N)=O)NC(=O)[C@H](CCc2ccccc2)NC(=O)[C@H](Cc2ccccc2)NC1=O
B14: c[Pro-Arg-Phe-Phe-Dap-Ser-Phe-DPro] (peptide)
peptide: cyclo(PRFF[Dap]SF[dP])
SMILES: N=C(N)NCCC[C@@H]1NC(=O)[C@@H]2CCCN2C(=O)[C@H]2CCCN2C(=O)[C@H](Cc2ccccc2)NC(=O)[C@H](CO)NC(=O)[C@H](CN)NC(=O)[C@H](Cc2ccccc2)NC(=O)[C@H](Cc2ccccc2)NC1=O

Legend:
Assay in all cases: cell-based or functional assay
[1] = molecular target: T1, mouse melanocortin-3 receptor (mouse, UniProt P33033 1-323)
T1 sequence (P33033 whole entry): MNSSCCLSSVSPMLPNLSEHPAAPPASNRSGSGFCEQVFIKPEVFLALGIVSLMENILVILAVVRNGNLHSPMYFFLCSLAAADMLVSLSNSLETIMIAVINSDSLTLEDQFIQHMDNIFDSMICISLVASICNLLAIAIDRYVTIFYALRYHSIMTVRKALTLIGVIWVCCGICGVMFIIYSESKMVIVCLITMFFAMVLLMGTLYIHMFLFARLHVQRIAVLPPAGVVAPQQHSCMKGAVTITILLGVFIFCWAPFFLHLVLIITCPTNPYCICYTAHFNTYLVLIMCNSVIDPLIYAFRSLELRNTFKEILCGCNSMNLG

[2] = molecular target: T2, mouse melanocortin-5 receptor (mouse, UniProt P41149 1-325)
T2 sequence (P41149 whole entry): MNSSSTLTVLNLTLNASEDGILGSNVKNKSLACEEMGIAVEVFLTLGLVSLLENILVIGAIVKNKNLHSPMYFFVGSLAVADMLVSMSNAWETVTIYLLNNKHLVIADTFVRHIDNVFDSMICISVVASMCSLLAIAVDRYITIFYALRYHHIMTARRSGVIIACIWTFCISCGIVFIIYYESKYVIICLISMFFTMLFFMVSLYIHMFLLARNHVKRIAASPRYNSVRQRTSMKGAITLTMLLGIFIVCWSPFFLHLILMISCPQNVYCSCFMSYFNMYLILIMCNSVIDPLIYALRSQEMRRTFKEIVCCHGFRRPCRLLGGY

[3] = molecular target: T3, mouse melanocortin-1 receptor (mouse, UniProt Q01727 1-315)
T3 sequence (Q01727 whole entry): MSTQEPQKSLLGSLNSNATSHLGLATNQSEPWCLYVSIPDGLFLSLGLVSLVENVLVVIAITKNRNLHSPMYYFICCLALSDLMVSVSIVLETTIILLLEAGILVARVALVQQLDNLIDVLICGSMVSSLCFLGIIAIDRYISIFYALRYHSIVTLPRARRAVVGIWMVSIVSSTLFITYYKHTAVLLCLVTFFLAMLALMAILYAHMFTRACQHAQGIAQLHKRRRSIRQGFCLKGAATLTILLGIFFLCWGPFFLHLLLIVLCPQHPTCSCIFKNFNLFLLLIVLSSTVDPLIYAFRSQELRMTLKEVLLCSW

[4] = molecular target: T4, mouse melanocortin-4 receptor (mouse, UniProt P56450 1-332)
T4 sequence (P56450 whole entry): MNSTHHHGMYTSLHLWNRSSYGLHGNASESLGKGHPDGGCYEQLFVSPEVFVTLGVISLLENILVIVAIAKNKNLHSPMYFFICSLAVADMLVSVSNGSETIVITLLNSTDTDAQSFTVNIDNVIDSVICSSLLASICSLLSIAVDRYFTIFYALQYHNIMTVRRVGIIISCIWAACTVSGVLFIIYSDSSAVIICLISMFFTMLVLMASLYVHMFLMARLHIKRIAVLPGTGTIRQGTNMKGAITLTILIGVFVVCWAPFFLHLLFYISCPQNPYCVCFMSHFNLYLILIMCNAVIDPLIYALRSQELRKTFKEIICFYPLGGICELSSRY

[5] = molecular target: T2, mouse melanocortin-5 receptor; remark: listed apart in the source
[6] = molecular target: T3, mouse melanocortin-1 receptor; remark: listed apart in the source
[7] = molecular target: T4, mouse melanocortin-4 receptor; remark: listed apart in the source
[8] = molecular target: T1, mouse melanocortin-3 receptor; remark: listed apart in the source
[9] = molecular target: T3, mouse melanocortin-1 receptor; remark: listed apart in the source

Binder	antagonist pA2 (Schild, agonist NDP-MSH) [1]	EC50 (cAMP AlphaScreen, inverse agonist) [2] [µM]	agonist EC50 (cAMP AlphaScreen) [3] [µM]	antagonist pA2 (Schild, agonist NDP-MSH) [4]	also measured
PRFFXAFP (head-to-tail cyclic; hPhe at 4; Dap at 5; DPro at 8) [c[Pro-Arg-Phe-hPhe-Dap-Ala-Phe-DPro]]	7.1	> 100	0.56		partial agonist, % receptor stimulation [3]: 70%
B1	7.5	> 100	> 100	9.1	
B2					inverse agonist apparent potency [5]: 0.11 µM; inverse agonist, % decrease from basal cAMP [5]: -20%; agonist EC50 (cAMP AlphaScreen) [6]: > 100 µM; agonist EC50 (cAMP AlphaScreen) [7]: > 100 µM; antagonist pA2 (Schild, agonist NDP-MSH) [7]: 7.34; agonist EC50 (cAMP AlphaScreen) [8]: > 100 µM; antagonist pA2 (Schild, agonist NDP-MSH) [8]: 5.7
B3	6.7	> 100	> 100	9.1	
B4					inverse agonist apparent potency [5]: 0.05 µM; inverse agonist, % decrease from basal cAMP [5]: -20%; agonist EC50 (cAMP AlphaScreen) [6]: > 100 µM; agonist EC50 (cAMP AlphaScreen) [7]: > 100 µM; antagonist pA2 (Schild, agonist NDP-MSH) [7]: 7.76; agonist EC50 (cAMP AlphaScreen) [8]: > 100 µM; antagonist pA2 (Schild, agonist NDP-MSH) [8]: 6.4
B5		> 100			
B6	6.5	> 100	> 100	9.1	
B7	6.6		2.6	8.5	partial agonist, % receptor stimulation [3]: 75%
cyclo(PR[dF][dF]NAF[dP]) [c[Pro-Arg-DPhe-DPhe-Asn-Ala-Phe-DPro]]					agonist EC50 (cAMP AlphaScreen) [9]: 0.8 µM; partial agonist efficacy, % of NDP-MSH [9]: 85%
B8	7.1	> 100	> 100	9.6	
B9	7.1	> 100	> 100	9	
cyclo(P[dR]FFNAF[dP]) [c[Pro-DArg-Phe-Phe-Asn-Ala-Phe-DPro]]					% maximal NDP-MSH response at 100 µM (cAMP AlphaScreen) [9]: 50%
cyclo(PRFF[Nle]AF[dP]) [c[Pro-Arg-Phe-Phe-Nle-Ala-Phe-DPro]]					agonist EC50 (cAMP AlphaScreen) [5]: > 100 µM; agonist EC50 (cAMP AlphaScreen) [6]: > 100 µM; agonist EC50 (cAMP AlphaScreen) [7]: > 100 µM; antagonist pA2 (Schild, agonist NDP-MSH) [7]: 6.9; agonist EC50 (cAMP AlphaScreen) [8]: > 100 µM; antagonist pA2 (Schild, agonist NDP-MSH) [8]: < 5.5
cyclo(P[dR][dF][dF]NAF[dP]) [c[Pro-DArg-DPhe-DPhe-Asn-Ala-Phe-DPro]]					agonist EC50 (cAMP AlphaScreen) [9]: 1.3 µM; partial agonist efficacy, % of NDP-MSH [9]: 85%
B10	7.2	> 100		9.2	% receptor stimulation at 100 µM (cAMP AlphaScreen) [3]: 40%
cyclo(P[dR][dF]FNAF[dP]) [c[Pro-DArg-DPhe-Phe-Asn-Ala-Phe-DPro]]					agonist EC50 (cAMP AlphaScreen) [9]: 0.5 µM; partial agonist efficacy, % of NDP-MSH [9]: 90%
cyclo(PRFFRAF[dP]) [c[Pro-Arg-Phe-Phe-Arg-Ala-Phe-DPro]]	7.4	> 100	0.6	8.7	partial agonist, % receptor stimulation [3]: 25%
B11	6.3	> 100	> 100	9.2	
B12	7.1	> 100	0.19	9	
B13	6.5	> 100		8.6	% receptor stimulation at 100 µM (cAMP AlphaScreen) [3]: 40%
B14	6.8	> 100	0.6	9.1	partial agonist, % receptor stimulation [3]: 85%
cyclo(PR[dF]FNAF[dP]) [c[Pro-Arg-DPhe-Phe-Asn-Ala-Phe-DPro]]					agonist EC50 (cAMP AlphaScreen) [9]: 0.7 µM
cyclo(PRF[dF]NAF[dP]) [c[Pro-Arg-Phe-DPhe-Asn-Ala-Phe-DPro]]					% maximal NDP-MSH response at 100 µM (cAMP AlphaScreen) [9]: 50%
